Results as given in the supplement of paper PMC12764529.
± gives the half width of the 95% confidence interval.

What was measured:
[1] = folding stability dG unfold from trypsin proteolysis; higher = more stable
Outline: (§1)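 Designed mini-proteins with no cysteine and under 80 residues were kept only if AlphaFold2 dimer inter-PAE was above 15. In a PA-tagged cDNA display construct, they were digested with trypsin and chymotrypsin and then sequenced. K50 was inferred by Bayesian fitting of counts, and unfolding free energy was derived per protease or combined against a sequence-predicted unfolded-state K50 and a shared folded-state K50.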

[2] = folding stability dG unfold (combined trypsin and chymotrypsin); higher = more stable
Outline: as §1

[3] = folding stability dG unfold from chymotrypsin proteolysis; higher = more stable
Outline: as §1

Q: Which “folding stability dG unfold” value [1] does the source give for “SAGGSAGGSAGSIVLTKTEILPGPENRPIIKTTIYKPPGPITITYPGGDPSKLVIETNSGSAGGSAGGSAGG [r17_64_JUSTAS]” here?
A: 0.247 ± 0.032 kcal/mol

Q: What about the “folding stability dG unfold” value [2] of the same sequence?
A: 0.0213 ± 0.28 kcal/mol

Q: And the “folding stability dG unfold” value [3]?
A: -0.331 ± 0.37 kcal/mol

Q: What does the source list for “SAGGSAGGSAGGMTLEIEINGLKVRIEFDEETKELRIEVEPAPPPVVVYEKEKLEEEEESAGGSAGGSAGGS [r10_724_TrROS_Hall]”?
A: folding stability dG unfold [1]: 1.56 ± 0.078 kcal/mol; folding stability dG unfold [2]: 1.46 ± 0.18 kcal/mol; folding stability dG unfold [3]: 1.52 ± 0.05 kcal/mol

Q: With “SGFEVERVEVEADLDKPTVARFLLVNPDGQPIVALDPVVRLGEEALVLSVYRNPVDGELRVTARRIRLDGSA [r9_269_TrMRF]” as the sequence, how does the “folding stability dG unfold” value [1] read?
A: 1.1 ± 0.068 kcal/mol

Q: And the “folding stability dG unfold” value [2]?
A: 1.21 ± 0.043 kcal/mol

Q: And the “folding stability dG unfold” value [3]?
A: 1.24 ± 0.11 kcal/mol

Q: Which results are given for “SAGGSAMKPGEPVEFNIMIKIRDPNGKPVGEIDIKVEYPKGQSESQMFDRARNEINNLAPEGHLEISAGGSA [r15_310_TrROS]”?
A: folding stability dG unfold [1]: 0.0892 ± 0.087 kcal/mol; folding stability dG unfold [2]: 0.396 ± 0.14 kcal/mol; folding stability dG unfold [3]: 0.486 ± 0.21 kcal/mol

Q: Which “folding stability dG unfold” value [1] does the source give for “SAMVEVRIEYDEETGEIRIEVRAEEEGEELTEEEIEELARELAEELGLPVEIKEIRVEKAPEVEEVVLESAG [r14_556_TrROS_Hall]” here?
A: 1.05 ± 0.18 kcal/mol

Q: And the “folding stability dG unfold” value [2]?
A: 0.884 ± 0.3 kcal/mol

Q: And the “folding stability dG unfold” value [3]?
A: 0.757 ± 0.1 kcal/mol

Q: Which results are given for “SAGGSAGGSAGGSAELLEVLEVTKTGSGYTVKVLERSPELGPSVRTESFPADDTSVLLLSAGGSAGGSAGGS [r4_253_JUSTAS]”?
A: folding stability dG unfold [1]: -0.00295 ± 0.088 kcal/mol; folding stability dG unfold [2]: -0.0527 ± 0.1 kcal/mol; folding stability dG unfold [3]: -0.384 ± 0.22 kcal/mol

Q: Which “folding stability dG unfold” value [1] does the source give for “SAGGSAMGTLRLGFVTGPDEEGRYEILDVTLEPGEPVLVTLRARFTFPDGDSVEVPFRFVVPPELLSAGGSA [r15_187_TrMRF]” here?
A: 2.78 ± 0.038 kcal/mol

Q: What about the “folding stability dG unfold” value [2] of the same sequence?
A: 2.96 ± 0.12 kcal/mol

Q: What about the “folding stability dG unfold” value [3] of the same sequence?
A: 3.15 ± 0.048 kcal/mol

Q: With “SAGGSASMARVEAIAEEIAPRLKAEGRPIARIEVTATRLPDGTVVVPITLTTPDGTPVYTFEVVVESAGGSA [r15_232_JUSTAS]” as the sequence, how does the “folding stability dG unfold” value [1] read?
A: 1.03 ± 0.051 kcal/mol

Q: And the “folding stability dG unfold” value [2]?
A: 1.48 ± 0.058 kcal/mol

Q: And the “folding stability dG unfold” value [3]?
A: 1.74 ± 0.032 kcal/mol

Q: With “SAGGSAGGIYIFFPPEDLEPIAPFTITIEVKRRDPDGDEPQPRKQTIPIRIYRAPNNNLMIEPGSAGGSAGG [r6_278_TrROS]” as the sequence, how does the “folding stability dG unfold” value [1] read?
A: 0.742 ± 0.11 kcal/mol

Q: And the “folding stability dG unfold” value [2]?
A: 0.881 ± 0.087 kcal/mol

Q: And the “folding stability dG unfold” value [3]?
A: 0.919 ± 0.19 kcal/mol

Q: What does the source list for “SAGGSAGGSAKPNNAELVKVTYDPETGDFYAFYKIKNTDTVYVLRFNKDGTVEVKEYKFSEASAGGSAGGSA [r18_521_TrMRF]”?
A: folding stability dG unfold [1]: 2.96 ± 0.21 kcal/mol; folding stability dG unfold [2]: 3.68 ± 0.17 kcal/mol; folding stability dG unfold [3]: 3.96 ± 0.08 kcal/mol

Q: Which “folding stability dG unfold” value [1] does the source give for “SAGGSAGGSAGKKPPVYRLVVENEDGEKYEFEFKSLEDLKAALESEEVRKKIKKVKIEKVSAGGSAGGSAGG [r11_1047_TrROS_Hall]” here?
A: 2.11 ± 0.09 kcal/mol

Q: And the “folding stability dG unfold” value [2]?
A: 2.6 ± 0.15 kcal/mol

Q: And the “folding stability dG unfold” value [3]?
A: 3.02 ± 0.11 kcal/mol

Q: Which “folding stability dG unfold” value [1] does the source give for “SAGGSAGGSAGGMVVEVVELPDGQLVVRAGPVGYAVVFNGEEVTLFELPPDAEVELLPFSAGGSAGGSAGGS [r10_637_TrMRF]” here?
A: 1.1 ± 0.032 kcal/mol

Q: And the “folding stability dG unfold” value [2]?
A: 1.36 ± 0.098 kcal/mol

Q: And the “folding stability dG unfold” value [3]?
A: 1.55 ± 0.089 kcal/mol

Q: For “SGSTHTVRPPGGLTLTFTFSTDGTTEEAAQALKEALAAALPPDVTVTFDRIDPDKPVTPDEAATVDATVVSA [r9_178_JUSTAS]”, which “folding stability dG unfold” value [1] is on record?
A: 0.482 ± 0.055 kcal/mol

Q: And the “folding stability dG unfold” value [2]?
A: 1.21 ± 0.17 kcal/mol

Q: What about the “folding stability dG unfold” value [3] of the same sequence?
A: 1.69 ± 0.11 kcal/mol

Q: Which results are given for “SAGGSAKKTIKITIEVDGKTIEITKITVNENGEVTIEVKITNKNGKETKTIKITMTVEELKALLKSSAGGSA [r15_56_TrROS_Hall]”?
A: folding stability dG unfold [1]: 1.63 ± 0.042 kcal/mol; folding stability dG unfold [2]: 2.18 ± 0.095 kcal/mol; folding stability dG unfold [3]: 2.55 ± 0.081 kcal/mol

Q: Which “folding stability dG unfold” value [1] does the source give for “SAGGSAGGSAGGDVKVTVTVTVDPETGEPVVEVTLELPGDRAIRARFTPDGRLLSVEEVDSAGGSAGGSAGG [r7_454_TrMRF]” here?
A: 3.79 ± 0.25 kcal/mol

Q: And the “folding stability dG unfold” value [2]?
A: 3.51 ± 0.21 kcal/mol

Q: What about the “folding stability dG unfold” value [3] of the same sequence?
A: 3.01 ± 0.16 kcal/mol

Q: What does the source list for “SAGGSAGGSDKIVERLQKRFPNVRISNIQPTPDGVTIQIENPDGKEFTIPYDELEKHGIEIEPSAGGSAGGS [r12_3_TrROS]”?
A: folding stability dG unfold [1]: 0.217 ± 0.17 kcal/mol; folding stability dG unfold [2]: 0.456 ± 0.16 kcal/mol; folding stability dG unfold [3]: 0.595 ± 0.085 kcal/mol

Q: Which “folding stability dG unfold” value [1] does the source give for “SAGGSAGMMKVTTTPVSADTVRVTVTVPGGPFTVTVTQNGVPLLTRTVPADATLTITLPPNATVVGSAGGSA [r15_581_JUSTAS]” here?
A: 1.91 ± 0.098 kcal/mol

Q: And the “folding stability dG unfold” value [2]?
A: 1.94 ± 0.14 kcal/mol

Q: What about the “folding stability dG unfold” value [3] of the same sequence?
A: 1.94 ± 0.078 kcal/mol
